T1: Linear … (SEQ ID NO: 15) conjugated to BSA
T1 sequence (peptide, conjugated to BSA): CGGGKLDFG


Target: T1, Linear … (SEQ ID NO: 15) conjugated to BSA
Assay: indirect ELISA, hybridoma supernatant on linear peptide-BSA

Row | OD | Binder
1 | 0.075 OD | Ab29 (clone 12D11) (antibody, V domains shown) VH: QIQLVQSGPELKKPGETVKISCKASGYTFTNYGMNWVKQAPGKGLKWMGWINTYSGEPTYVDDFKGRFAFSLETSASTAYLQINNLKNEDMATYFCARSPGAYYTLDYWGQGTSVTVSS VL: DIVMSQSPSSLAVSAGEKVTMSCKSSQSLLNSRTRKNYLAWYQQKPGQSPKLLIYWASTRESGVPDRFTGSGSGTDFTLTISSVQAEDLAVYYCKQSYNLYTFGGGTKLEIK
2 | 0.107 OD | Ab21 (clone 2C6) (antibody, V domains shown) VH: EVQLQQSGAELVKPGASVKLSCTASGFNIKDTHMHWVKQRPEQGLEWIGKIDPSNGNTQYDPKFQGKATITADTSSNTAYLQLSSLTSEDTAVYYCATGFAYWGQGTLVTVSA VL: DIQMTQSPASLSASVGETVTITCRASGNIHNYLAWYQQKQGKSPQLLVYNAKTLADGVPSRFSGSGSGTQYSLKINSLQPEDFGSYYCQHFWYTPWTFGGGTKLEIK
